Measurements as given in patent US20120079614A1 (ROYAL INSTITUTION FOR THE ADVANCEMENT OF LEARNING MCGILL …, published 2012).
Values belong to the binder of their own block, whether it stands above or below them.

What was measured:
[1] = target: T1, soluble CD109 protein (full-length recombinant CD109) (human, UniProt Q6YHK3 22-1420, limits assumed); assay: SPR, BIACORE 3000; CD109 amine-coupled on CM5 chip, TGF-β as analyte
T1 construct: also called FL CD109; CD109 soluble full-length protein
T1 sequence: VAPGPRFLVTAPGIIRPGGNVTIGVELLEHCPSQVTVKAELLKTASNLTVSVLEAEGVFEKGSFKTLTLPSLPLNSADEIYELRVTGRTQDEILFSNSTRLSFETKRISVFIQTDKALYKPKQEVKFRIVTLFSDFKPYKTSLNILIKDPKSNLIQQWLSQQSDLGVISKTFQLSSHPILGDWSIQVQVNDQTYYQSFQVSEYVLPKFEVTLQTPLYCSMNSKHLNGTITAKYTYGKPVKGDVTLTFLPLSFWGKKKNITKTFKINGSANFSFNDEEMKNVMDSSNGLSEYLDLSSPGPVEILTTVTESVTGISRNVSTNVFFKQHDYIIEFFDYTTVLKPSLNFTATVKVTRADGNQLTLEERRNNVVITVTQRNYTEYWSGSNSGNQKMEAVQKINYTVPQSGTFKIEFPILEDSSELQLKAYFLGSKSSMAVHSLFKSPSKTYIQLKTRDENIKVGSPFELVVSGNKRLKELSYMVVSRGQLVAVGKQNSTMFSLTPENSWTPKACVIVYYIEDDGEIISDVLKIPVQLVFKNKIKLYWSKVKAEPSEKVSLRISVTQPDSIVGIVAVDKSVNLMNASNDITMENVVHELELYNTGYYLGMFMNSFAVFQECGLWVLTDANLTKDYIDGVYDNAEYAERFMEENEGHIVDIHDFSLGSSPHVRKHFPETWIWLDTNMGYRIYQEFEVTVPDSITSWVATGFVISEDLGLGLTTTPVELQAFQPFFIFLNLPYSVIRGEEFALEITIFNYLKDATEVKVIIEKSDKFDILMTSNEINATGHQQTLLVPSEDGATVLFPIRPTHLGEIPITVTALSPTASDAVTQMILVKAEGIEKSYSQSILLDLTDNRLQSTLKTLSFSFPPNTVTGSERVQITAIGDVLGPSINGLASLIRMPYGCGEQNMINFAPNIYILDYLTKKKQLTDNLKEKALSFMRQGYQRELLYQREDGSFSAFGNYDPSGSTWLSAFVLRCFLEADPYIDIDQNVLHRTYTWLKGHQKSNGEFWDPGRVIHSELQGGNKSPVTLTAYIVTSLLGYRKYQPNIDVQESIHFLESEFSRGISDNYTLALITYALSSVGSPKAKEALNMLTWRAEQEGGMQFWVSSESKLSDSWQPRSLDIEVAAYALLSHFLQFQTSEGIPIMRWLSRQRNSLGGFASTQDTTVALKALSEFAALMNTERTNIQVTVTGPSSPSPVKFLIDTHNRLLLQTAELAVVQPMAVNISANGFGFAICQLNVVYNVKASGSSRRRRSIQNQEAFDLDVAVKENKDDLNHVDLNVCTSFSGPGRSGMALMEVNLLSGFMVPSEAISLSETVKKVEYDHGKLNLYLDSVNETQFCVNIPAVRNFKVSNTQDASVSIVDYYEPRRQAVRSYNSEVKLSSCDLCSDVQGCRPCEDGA
Experimental: (§1) Surface plasmon resonance assay: CD109 protein and peptides were tested for their ability to bind TGF-β using surface plasmon resonance. CD109 protein and peptides were amine-coupled onto a gold-dextran CM5 sensor chip as the ligands and TGF-β1/2/3 in HBS-ET buffer as the analytes were pumped across the CD109 amine-coupled sensor chip and binding response was measured using BIACORE 3000™ SPR detection system.

[2] = target: T2, Transforming Growth Factor-β1 (TGF-β1) (UniProt P01137 279-390, 125I label in the affinity labeling assays); assay: SPR, BIACORE 3000; Peptide A amine-coupled on CM5 chip, TGF-β1 as analyte
T2 construct: The background describes TGF-β as a 25 kDa growth factor; also called I125TGF-β1
Experimental: as §1

T2 sequence (P01137 279-390 limits assumed): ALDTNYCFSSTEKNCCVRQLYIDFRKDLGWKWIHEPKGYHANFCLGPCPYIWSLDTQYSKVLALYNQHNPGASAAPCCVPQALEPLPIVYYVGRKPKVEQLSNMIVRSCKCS

Kd [1]: 1 nM
B1: TGF-β2 (ligand, UniProt P61812 303-414, looked up)
chain: ALDAAYCFRNVQDNCCLRPLYIDFKRDLGWKWIHEPKGYNANFCAGACPYLWSSDTQHSRVLSLYNTINPEASASPCCVSQDLEPLTILYYIGKTPKIEQLSNMIVKSCKCS

Kd [2]: 10 nM
B2: CD109 Peptide A (CD109 amino acids 606-766) (peptide)
chain: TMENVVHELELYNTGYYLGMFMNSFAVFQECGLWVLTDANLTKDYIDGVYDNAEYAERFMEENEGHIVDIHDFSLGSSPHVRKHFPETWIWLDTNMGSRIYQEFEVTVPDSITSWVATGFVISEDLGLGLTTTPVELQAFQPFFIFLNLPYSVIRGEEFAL
notes: also called CD109-based peptide
